Data on 2 molecules can be found in patent US20050227306A1, “Fluorescence polarization assay to detect protease cleavage” (priority 2003, published 2005).

Common to all, as to type: biochemical, E. coli
Assay [1] deals with substrate 24-F (His6-tetraCys-X-MBP). Kind of assay: Fluorescence anisotropy proteolysis assay with substrate 24-F. The following applies: initial rate by fluorescence anisotropy, normalized to the rate of the protease with its preferred cognate substrate. The text has this:
(§1) All protease substrates were expressed in E. coli Rosetta pLacI Rare to provide compensation for rare codons (see Kirienko et al. (2004) Biochemistry (Mosc) 69:527-535; available commercially from Novagen, a wholly-owned subsidiary of EMD Biosciences, Inc., Madison, Wis.). The expression was done in 2-L PET bottles (Millard et al. (2003) Protein Expr. Purif. 29:311-320). The protein purification followed typical IMAC purification procedures (see Sambrook & Russell, supra) including elution in an imidazole gradient from 0-350 mM. After SDS-PAGE analysis, appropriate fractions were pooled and desalted into 20 mM phosphate, pH 7.5, containing 100 mM NaCl and 0.3 mM TCEP. […]
(§2) Protease assays were conducted using a combination of 20 μM unlabeled and 40 nM labeled protease substrates unless noted otherwise. […] This decreased the amount of time between mixing and measurement to less than three minutes and allowed the fluorescence anisotropy measured at the first time point to closely approximate the anisotropy of the intact fusion protein. […]
(§3) Fluorescence anisotropy was measured using a Tecan 384 Ultra plate spectrofluorimeter. Excitation was at 485 nm (25 nm bandpass) and emission was measured at 525 nm (20 nm bandpass). […] See J. Lakowicz, “Principles of fluorescence spectroscopy,” Kluwer Academic/Plenum Publishers, New York, 1999. […]
(In general: In fluorescence polarisation assays a small probe gives low polarisation when free and higher when bound to something large.)

The test system of assay [2] is substrate 26-F (His6-tetraCys-X-MBP). Nature of the assay: Fluorescence anisotropy proteolysis assay with substrate 26-F. The following applies: for Relative rate of reaction, substrate 26F: initial rate by fluorescence anisotropy, normalized to the rate of the protease with its preferred cognate substrate.
Text: as §1, with “TCEP. Proteins were concentrated to a final concentration of 300-600 μM using centrifugal concentrators. Glycerol (50% v/v) was added to all protease substrates except 26-F and frozen at −20° C. The Arabidopsis targets At3g03410 (expressed from pVP14) and At3g16990 (expressed from pVP15) were flash frozen as drops in liquid nitrogen and stored at −80° C.” for “TCEP.”
as §2
(§4) Fluorescence anisotropy was measured using a Tecan 384 Ultra plate spectrofluorimeter. Excitation was at 485 nm (25 nm bandpass) and emission was measured at 525 nm (20 nm bandpass). […] The observed anisotropy is the sum of the anisotropy of the individual fluorescent components, or robs=Σfiri, where robs, is the observed anisotropy, fi is the fractional fluorescence intensity of component i, and ri is the anisotropy of component i. See J. Lakowicz, “Principles of fluorescence spectroscopy,” Kluwer Academic/Plenum Publishers, New York, 1999. […]

In assay [3] the test system is substrate 22-F (His6-tetraCys-X-MBP). Kind of assay: Fluorescence anisotropy proteolysis assay with substrate 22-F. The following applies: initial rate by fluorescence anisotropy, normalized to the rate of the protease with its preferred cognate substrate.
Text: as §1, §2, §3

Assay [4] concerns substrate 21-F (His6-tetraCys-X-MBP). Kind of assay: Fluorescence anisotropy proteolysis assay with substrate 21-F. The following applies: initial rate by fluorescence anisotropy, normalized to the rate of the protease with its preferred cognate substrate.
Text: as §1, §2, §3

For assay [5], the system named is substrate 23-F (His6-tetraCys-X-MBP). Kind of assay: Fluorescence anisotropy proteolysis assay with substrate 23-F. The following applies: for Relative rate of reaction, substrate 23F: initial rate by fluorescence anisotropy, normalized to the rate of the protease with its preferred cognate substrate.
Text: as §1, with “TCEP. Proteins were concentrated to a final concentration of 300-600 μM using centrifugal concentrators. Glycerol (50% v/v) was added to all protease substrates except 26-F and frozen at −20° C. The Arabidopsis targets At3g03410 (expressed from pVP14) and At3g16990 (expressed from pVP15) were flash frozen as drops in liquid nitrogen and stored at −80° C.” for “TCEP.”
as §2, §4

The subject of assay [6] is substrate 21-F (His6-tetraCys-X-MBP). Kind of assay: SDS-PAGE analysis of proteolysis of substrate 21-F. The following applies: incubated 16 h (overnight). The method, then: FIG. 22 is a photograph of a gel depicting SDS-PAGE analysis of protease substrates incubated with Factor Xa and TEV protease for 16 h. Lane M, molecular weight standards of 31 and 45 kDa. Lanes 1-5, Factor Xa with substrates 21-F, 22-F, 23-F, 24-F and 25-F, respectively. Lanes 6-10, trypsin with substrates 21-F, 22-F, 23-F, 24-F and 25-F, respectively. Lanes 11-14, TEV protease with substrates 21-F, 22-F, 23-F and 24-F, respectively.
The intensity of protein bands in SDS-PAGE gels was determined using Image J-brand software, version 1.30. This is a public domain program that can be obtained from the National Institutes of Health (Bethesda, Md.).
SDS-PAGE analysis with Coomassie staining was performed to further evaluate the predicted low rates of substrate dependent non-specific proteolysis.

In assay [7] the test system is substrate 25-F (His6-tetraCys-X-MBP). Nature of the assay: Fluorescence anisotropy proteolysis assay with substrate 25-F. The following applies: initial rate by fluorescence anisotropy, normalized to the rate of the protease with its preferred cognate substrate.
Text: as §1, §2, §3

B1: Enterokinase: commercial protease used for removing fusion tags (protein, UniProt P98072 2-800; P98072 801-1035, looked up)
Enteropeptidase non-catalytic …: GSKRSVPSRHRSLTTYEVMFAVLFVILVALCAGLIAVSWLSIQGSVKDAAFGKSHEARGTLKIISGATYNPHLQDKLSVDFKVLAFDIQQMIDDIFQSSNLKNEYKNSRVLQFENGSIIVIFDLLFDQWVSDKNVKEELIQGIEANKSSQLVTFHIDLNSIDITASLENFSTISPATTSEKLTTSIPLATPGNVSIECPPDSRLCADALKCIAIDLFCDGELNCPDGSDEDNKTCATACDGRFLLTGSSGSFEALHYPKPSNNTSAVCRWIIRVNQGLSIQLNFDYFNTYYADVLNIYEGMGSSKILRASLWSNNPGIIRIFSNQVTATFLIQSDESDYIGFKVTYTAFNSKELNNYEKINCNFEDGFCFWIQDLNDDNEWERTQGSTFPPSTGPTFDHTFGNESGFYISTPTGPGGRRERVGLLTLPLDPTPEQACLSFWYYMYGENVYKLSINISSDQNMEKTIFQKEGNYGQNWNYGQVTLNETVEFKVSFYGFKNQILSDIALDDISLTYGICNVSVYPEPTLVPTPPPELPTDCGGPHDLWEPNTTFTSINFPNSYPNQAFCIWNLNAQKGKNIQLHFQEFDLENIADVVEIRDGEGDDSLFLAVYTGPGPVNDVFSTTNRMTVLFITDNMLAKQGFKANFTTGYGLGIPEPCKEDNFQCKDGECIPLVNLCDGFPHCKDGSDEAHCVRLFNGTTDSSGLVQFRIQSIWHVACAENWTTQISDDVCQLLGLGTGNSSVPTFSTGGGPYVNLNTAPNGSLILTPSQQCLEDSLILLQCNYKSCGKKLVTQEVSPK
Enteropeptidase catalytic …: IVGGSDSREGAWPWVVALYFDDQQVCGASLVSRDWLVSAAHCVYGRNMEPSKWKAVLGLHMASNLTSPQIETRLIDQIVINPHYNKRRKNNDIAMMHLEMKVNYTDYIQPICLPEENQVFPPGRICSIAGWGALIYQGSTADVLQEADVPLLSNEKCQQQMPEYNITENMVCAGYEAGGVDSCQGDSGGPLMCQENNRWLLAGVTSFGYQCALPNRPGVYARVPRFTEWIQSFLH
On to B1, for which the “Relative rate of reaction, substrate 24F” value in assay [1] worked out at 0.2. In addition, the “Relative rate of reaction, substrate 26F” value in assay [2] stood at 1. For the same molecule, in assay [3], the “Relative rate of reaction, substrate 22F” value is 1.3. Also, the “Relative rate of reaction, substrate 21F” value in assay [4] is 0.5. Further, in assay [5], the “Relative rate of reaction, substrate 23F” value was determined as 1. Also, in assay [5] (substrate 23-F, per supplier's reported activity unit), the Specific reaction rate is reported as 0.130±0.007 nmole substrate proteolyzed per unit enzyme per hour.

B2: TEV: tobacco etch virus protease (protein)
chain: GESLFKGPRDYNPISSTICHLTNESDGHTTSLYGIGFGPFIITNKHLFRRNNGTLLVQSLHGVFKVKNTTTLQQHLIDGRDMIIIRMPKDFPPFPQKLKFREPQREERICLVTTNFQTKSMSSMVSDTSCTFPSSDGIFWKHWIQTKDGQCGSPLVSTRDGFIVGIHSASNFTNTNNYFTSVPKNFMELLTNQEAQQWVSGWRLNADSVLWGGHKVFMSKPEEPFQPVKEATQLMNELVYSQ
Turning to B2, the “Relative rate of reaction, substrate 24F” value in assay [1] is given as −0.01. Also, in assay [6], the “Proteolysis of substrate 21-F by SDS-PAGE with Coomassie staining” value is “minor amount of proteolysis”. Further, the “Relative rate of reaction, substrate 26F” value in assay [2] was determined as 1. The Specific reaction rate in assay [2] (substrate 26-F, slope of initial rate versus protease concentration, errors two standard deviations) was 17.3±0.7 moles substrate proteolyzed per mole of protease per hour. For the same molecule, in assay [7], the “Relative rate of reaction, substrate 25F” value was 0.0. Moreover, the “Relative rate of reaction, substrate 22F” value in assay [3] was 0.0. In assay [4], the “Relative rate of reaction, substrate 21F” value was 0.01. The “Relative rate of reaction, substrate 23F” value in assay [5] is on record as −0.02.
